Numbering of substitutions follows the chain as printed.
B1: COV2-2531 Fab (Fab, V domains shown)
VH: QVQLQESGPGLVKPSETLSLTCSVSGGSIRSYFWNWVRQPPGKGLEWIGYIYYSGSTNYKPSFKSRVTISLDTSKNQISLKLSSVTAADTAVYYCARATWLRDAFGIWGQGTMVTVSS
VL: NFMLTQPHSVSESPGKTVTISCTGNSGSIASNYVQWYQQRPGSAPTTVIYEDSQRPSGVPDRFSGSIDSSSNSASLTISGLKTEDEADYYCQSFDSGNVVFGGGTKLTVL
B2: C126 Fab (Fab, V domains shown)
VH: QVQLQESGPGLVKPSETLSLSCAVSGGSIGSYFWSWIRQPPGKGLEWIGYLHYSGSTNYNPSLKSRVTISVDTSKNQFSLKLSSVTAADTAVYYCARLQWLRGAFDIWGQGTMVTVSS
VL: B1 VL with N25S, Y50N, S53N, F94Y, G97S, V99L
B3: COV2-2002 (antibody, V domains shown)
VH: EVQLVESGGGLVQPGGSLRLSCAASGFTFSFYWMSWVRQAPGKGLEWVANIKQDGSEKYYVDSVKGRSTISRDNAKNSLYLQMNSLRAEDTAVYYCARVGSSSWYFDYWGQGTLVTVSS
VL: not shown
B4: COV2-2333 (antibody, V domains shown)
VH: B3 VH with F31I, E46Q, G55A, S68F, V99L, S101G, Y105H
VL: SYELTQPPSVSVSPGQTASITCSGDKLGDKYSSWYQQKPGQSPVLVIYEDTKRPSGIPERFSGSNSGNTATLTISGTQAMDEADYYCQAWSSSTAVFGGGTKLTVL
B5: CnC2t1p1_B10 (antibody, V domains shown)
VH: QVQLVQSGAEVKKPGSSVKVSCKASGGTFSSYAISWVRQAPGQGLEWMGGIIPIFGTANYAQKFQGRVTITADKSTSTAYMELSSLRSEDTAVYYCARVSGYDSSGYWGDYWGQGTLVTVSS
VL: EIVLTQSPATLSLSPGERATLSCRASQSVSSYLAWYQQKPGQAPRLLIYDASNRATGIPARFSGSGSGTDFTLTISSLEPEDFAVYYCQQRSNWPPALTFGGGTKVEIK
B6: COV2-2531 (antibody, V domains shown)
VH: B1 VH
VL: B1 VL
B7: C126 (antibody, V domains shown)
VH: B2 VH
VL: B1 VL with N25S, Y50N, S53N, F94Y, G97S, V99L

target: variant of S6P_(ecto) protein containing a C-terminal Twin-Strep-tag (SARS-CoV-2, Wuhan-Hu-1 (assumed), UniProt P0DTC2, stabilised); assay: negative stain electron microscopy

Binder	binding result
B1	binds
B2	binds

target: full-length SARS-CoV-2 S protein expressed in HEK293T cells (SARS-CoV-2, Wuhan-Hu-1, UniProt P0DTC2); assay: flow cytometry on cells

Binder	binding result
B3	binds
B4	binds
B5	binds
B6	binds
B7	binds

— publication PMC8352653 (Cell Reports, 2021)
